Reference: article PMC6050341, “Direct observation of DNA target searching and cleavage by CRISPR-Cas12a”

How the values were obtained:
AsCas12a WT [1] = molecular target: T1, AsCas12a WT (Acidaminococcus sp., UniProt U2UMQ6 1-1307); experiment: single-molecule FRET; 10 mM Mg2+; 20 nM RNP; transient S1 lifetime 0.13 +/- 0.01 s; stable stage II lifetime 94 s; smFRET: 10 mM Tris-HCl pH 8.0, 100 mM NaCl (100 mM KCl in Figs 4, 5), 10 mM MgCl2, 1 mM DTT, oxygen scavenger, 37 C; SpCas9 in NEB buffer 3
AsCas12a WT [2] = molecular target: T1, AsCas12a WT; experiment: single-molecule FRET; 10 mM Mg2+; 10 nM protein, 20 nM crRNA; smFRET: 10 mM Tris-HCl pH 8.0, 100 mM NaCl (100 mM KCl in Figs 4, 5), 10 mM MgCl2, 1 mM DTT, oxygen scavenger, 37 C; SpCas9 in NEB buffer 3
[3] = molecular target: T2, dAsCas12a (catalytically dead) (Acidaminococcus sp., UniProt U2UMQ6 1-1307, E993A); experiment: single-molecule FRET; 10 mM Mg2+; stable binding reached; smFRET: 10 mM Tris-HCl pH 8.0, 100 mM NaCl (100 mM KCl in Figs 4, 5), 10 mM MgCl2, 1 mM DTT, oxygen scavenger, 37 C; SpCas9 in NEB buffer 3; conditions: protein: recombinant; tags: His tag implied (pET28b, Ni-NTA); label: crRNA 3' Cy5; DNA Cy3, 5' biotin; DNA 5' overhang 2 nt
AsCas12a WT [4] = molecular target: T1, AsCas12a WT; experiment: single-molecule FRET; 5 nM AsCas12a, 10 nM crRNA; no stable binding, only short events; smFRET: 10 mM Tris-HCl pH 8.0, 100 mM NaCl (100 mM KCl in Figs 4, 5), 10 mM MgCl2, 1 mM DTT, oxygen scavenger, 37 C; SpCas9 in NEB buffer 3
AsCas12a WT [5] = molecular target: T1, AsCas12a WT; experiment: single-particle tracking (TIRF); loose binding; drift rate rises with flow; smFRET: 10 mM Tris-HCl pH 8.0, 100 mM NaCl (100 mM KCl in Figs 4, 5), 10 mM MgCl2, 1 mM DTT, oxygen scavenger, 37 C; SpCas9 in NEB buffer 3
[6] = molecular target: T2, dAsCas12a (catalytically dead); experiment: single-molecule FRET; 10 mM Mg2+; 100 mM KCl; no specific binding events (t < 30 ms); smFRET: 10 mM Tris-HCl pH 8.0, 100 mM NaCl (100 mM KCl in Figs 4, 5), 10 mM MgCl2, 1 mM DTT, oxygen scavenger, 37 C; SpCas9 in NEB buffer 3; conditions: protein: recombinant; tags: His tag implied (pET28b, Ni-NTA); label: crRNA 3' Cy5; DNA Cy3, 5' biotin; DNA 5' overhang 2 nt
AsCas12a WT [7] = molecular target: T1, AsCas12a WT; experiment: single-particle tracking (TIRF); 1D diffusion, then stable stall at target about 50 s; smFRET: 10 mM Tris-HCl pH 8.0, 100 mM NaCl (100 mM KCl in Figs 4, 5), 10 mM MgCl2, 1 mM DTT, oxygen scavenger, 37 C; SpCas9 in NEB buffer 3

B1: DNMT1 crRNA + target DNA WT (Fig 2) (mixed)
RNA: AAUUUCUACUCUUGUAGAUCUGAUGGUCCAUGUCUGUUACUC
DNA 1: TTTTTTCACTTGACAGGCGAGTAACAGACATGGACCATCAGGAAACATTAACGTACT
DNA 2: AGTACGTTAATGTTTCCTGATGGTCCATGTCTGTTACTCGCCTGTCAAGTG
modifications: internal amino-dT for dye
B1: binds (AsCas12a WT [1]).

B2: DNMT1 crRNA + target WT (Fig 5) (mixed)
RNA: AAUUUCUACUCUUGUAGAUCUGAUGGUCCAUGUCUGUUACUC
DNA 1: GGATCTCTTAAGTCGTTGAGTAACAGACATGGACCATCAGGAAACACAGTGCAGTATTAGCACTTTTT
DNA 2: GTGCTAATACTGCACTGTGTTTCCTGATGGTCCATGTCTGTTACTCAACGACTTAAGAGATCC
B2: binds (AsCas12a WT [2]).

B3: DNMT1 crRNA + 17 match DNA (mixed)
RNA: AAUUUCUACUCUUGUAGAUCUGAUGGUCCAUGUCUGUUACUC
DNA 1: TTCACTTGACAGGCACTCGTCAGACATGGACCATCAGGAAACATTAACGTACT
DNA 2: AGTACGTTAATGTTTCCTGATGGTCCATGTCTGACGAGTGCCTGTCAAGTG
B3: binds [3].

B4: DNMT1 crRNA + target w/o PAM (mixed)
RNA: AAUUUCUACUCUUGUAGAUCUGAUGGUCCAUGUCUGUUACUC
DNA 1: TTCACTTGACAGGCGAGTAACAGACATGGACCATCAGGAAGCATAAGCGTACT
DNA 2: AGTACGCTTATGCTTCCTGATGGTCCATGTCTGTTACTCGCCTGTCAAGTG
B4: no binding (AsCas12a WT [4]).

B5: DNMT1 crRNA + lambda DNA (mixed)
RNA: AAUUUCUACUCUUGUAGAUCUGAUGGUCCAUGUCUGUUACUC
B5: binds (AsCas12a WT [5]).

B6: DNMT1 crRNA + 0 match DNA (mixed)
RNA: AAUUUCUACUCUUGUAGAUCUGAUGGUCCAUGUCUGUUACUC
DNA 1: TTCACTTGACAGGCACTCGTCTCAACGCACACTGATAGAAACATACACGTACT
DNA 2: AGTACGTGTATGTTTCTATCAGTGTGCGTTGAGACGAGTGCCTGTCAAGTG
B6: no binding [6].

B7: 80% crRNA + 21 kb DNA (mixed)
RNA: AAUUUCUACUCUUGUAGAUACGGUCGAGCGUCAGCGUCCGGG
B7: binds (AsCas12a WT [7]).
